Measurements from patent publication US20250043302A1, “MUTATED HYDROXYPHENYLPYRUVATE DIOXYGENASE POLYPEPTIDE, AND CODING GENE AND USE THEREOF” (BEIJING DABEINONG BIOTECHNOLOGY CO., LTD., priority 2021, published 2025).
Positions count from the first letter of the chain named. Numbers in names are those of the source.

B1: ZmHPPDm-F372A-02: nucleotide sequence encoding Zea mays HPPD with F372A; vector DBN11767 (nucleic acid)
DNA: ATGCCACCCACACCCACAGCAGCAGCGGCGGGCGCAGCGGTCGCAGCGGCGTCAGCGGCGGAGCAAGCGGCGTTCAGATTGGTTGGTCACCGCAACTTCGTGAGATTCAATCCTCGCTCAGATAGATTCCATACTCTGGCCTTCCACCATGTTGAGCTTTGGTGCGCTGATGCTGCTTCTGCTGCTGGAAGGTTCAGCTTCGGTTTGGGTGCTCCCCTCGCTGCTAGATCTGATTTGAGCACTGGTAACTCAGCACATGCTTCCCTCCTGCTTAGATCTGGCTCTCTGAGCTTCCTTTTCACTGCTCCATATGCTCATGGTGCTGATGCTGCTACAGCTGCTCTCCCTTCATTCTCCGCTGCTGCTGCTAGGAGATTCGCTGCTGATCACGGATTGGCTGTGAGGGCTGTTGCACTTAGAGTTGCTGATGCTGAGGAGGCCTTCCGCACCTCTGTTGCTGCTGGAGCCAGACCAGCTTTCGGACCTGTTGATCTCGGAAGGGGTTTCCGCCTGGCTGAGGTGGAGCTTTACGGCGATGTGGTTCTGCGCTACGTTAGCTATCCTGATGGTGCTGCTGGTGAACCTTTCCTTCCAGGATTCGAGGGTGTGGCCTCACCAGGTGCCGCTGATTACGGCCTGTCCAGATTCGACCACATTGTTGGAAATGTTCCTGAGCTTGCTCCAGCTGCTGCCTACTTCGCTGGCTTCACCGGATTCCATGAGTTCGCCGAGTTCACCACTGAGGATGTGGGAACTGCTGAGTCTGGTTTGAATAGCATGGTGCTCGCCAACAATTCAGAGAACGTTTTGCTCCCTCTGAATGAGCCCGTGCACGGAACAAAGAGAAGGTCCCAGATTCAAACCTTCTTGGATCACCACGGCGGCCCAGGTGTTCAGCATATGGCTCTCGCCTCCGATGACGTGTTGAGAACCCTCAGGGAGATGCAAGCCAGGTCTGCTATGGGTGGCTTCGAGTTCATGGCCCCACCTACAAGCGATTACTATGATGGTGTGCGCAGAAGGGCTGGCGACGTTCTTACCGAGGCTCAGATCAAGGAGTGCCAAGAGCTGGGCGTGCTTGTTGATAGAGATGACCAGGGAGTTCTGCTTCAAATTGCTCCCAAGCCAGTGGGCGACAGGCCTACTTTGTTCCTCGAGATTATCCAGAGAATCGGATGCATGGAGAGGGATGAGAAGGGTCAGGAGTACCAAAAGGGAGGTTGCGGCGGATTCGGCAAGGGAAATTTCTCACAACTCTTCAAGTCCATCGAGGACTATGAAAAGAGTCTGGAAGCGATGCAGGCAGCAGCAGCAGCAACCGCACAGGGGTCGTGA
modifications: ZmHPPDm-F372A-02 Nucleotide Sequence
notes: vector DBN11767
B2: ZmHPPDm-F383W-02: nucleotide sequence encoding Zea mays HPPD with F383W; vector DBN11768 (nucleic acid)
DNA: B1 DNA with G1117T, C1118T, T1119C, T1151G, C1152G
modifications: ZmHPPDm-F383W-02 Nucleotide Sequence
notes: vector DBN11768

Assays:
Type in all cases: in vivo
[1] = test system: Arabidopsis thaliana T1 plants; experiment: Topramezone tolerance of transgenic Arabidopsis thaliana T1 plants (spray, bleached leaf area grade, damage score); conditions: 7 DAT, Table 4; for Classification and statistics of the grade of pesticide damage: Grade 0 / Classification and statistics of the grade of pesticide damage: Grade 1 / Classification and statistics of the grade of pesticide damage: Grade 2 / Classification and statistics of the grade of pesticide damage: Grade 3: number of plants; for Scores: pesticide damage score 0-100
In short: (§1)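 T1 transformants selected by glufosinate; 18-day-old plants, with empty-vector and wild-type controls, sprayed with topramezone (25–200 g ai/ha), isoxaflutole (35–280 g ai/ha) or mesotrione (52.5–420 g ai/ha), water as 0×. Bleached leaf area fraction scored at 7 DAT as grades 0–3.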

[2] = test system: Arabidopsis thaliana T1 plants; experiment: Isoxaflutole tolerance of transgenic Arabidopsis thaliana T1 plants (spray, bleached leaf area grade, damage score); design: Scores (pesticide damage): scale not given here; conditions: spray, Arabidopsis thaliana T1 plants; for Classification and statistics of the grade of pesticide damage: Grade 0 (number of plants) / Classification and statistics of the grade of pesticide damage: Grade 1 (number of plants) / Classification and statistics of the grade of pesticide damage: Grade 2 (number of plants) / Classification and statistics of the grade of pesticide damage: Grade 3 (number of plants): 16 plants
In short: as §1

[3] = test system: Arabidopsis thaliana T1 plants; experiment: Mesotrione tolerance of transgenic Arabidopsis thaliana T1 plants (spray, bleached leaf area grade, damage score); design: Scores: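 damage score 0-100 computed as Σ(N×S)/(T×M)×100 over grades 0-3 with higher meaning more damage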; conditions: Arabidopsis thaliana T1 plants; for Grade 0 (classification and statistics of the grade of pesticide damage; number of plants) / Grade 1 (classification and statistics of the grade of pesticide damage; number of plants) / Grade 2 (classification and statistics of the grade of pesticide damage; number of plants) / Grade 3 (classification and statistics of the grade of pesticide damage; number of plants): 16 plants
In short: as §1

[4] = isoxaflutole 35 g ai/ha (0.5x field concentration)
[5] = isoxaflutole 70 g ai/ha (1x field concentration)

Row | Molecule | Classification and statistics of the grade of pesticide damage: Grade 0 ([1]; topramezone 25 g ai/ha (1×)) | Classification and statistics of the grade of pesticide damage: Grade 1 ([1]; topramezone 25 g ai/ha (1×)) | Classification and statistics of the grade of pesticide damage: Grade 2 ([1]; topramezone 25 g ai/ha (1×)) | Classification and statistics of the grade of pesticide damage: Grade 3 ([1]; topramezone 25 g ai/ha (1×)) | Classification and statistics of the grade of pesticide damage: Grade 0 ([1]; topramezone 100 g ai/ha (4×)) | Classification and statistics of the grade of pesticide damage: Grade 1 ([1]; topramezone 100 g ai/ha (4×)) | Classification and statistics of the grade of pesticide damage: Grade 2 ([1]; topramezone 100 g ai/ha (4×)) | Classification and statistics of the grade of pesticide damage: Grade 3 ([1]; topramezone 100 g ai/ha (4×)) | Scores ([1]; topramezone 25 g ai/ha (1×)) | Scores ([1]; topramezone 100 g ai/ha (4×)) | Resistance evaluation ([1]; topramezone 25 g ai/ha (1×)) | Resistance evaluation ([1]; topramezone 100 g ai/ha (4×)) | Resistance evaluation [2, 4] | Scores (pesticide damage) [2, 4] | Classification and statistics of the grade of pesticide damage: Grade 0 (number of plants) [2, 4] | Classification and statistics of the grade of pesticide damage: Grade 1 (number of plants) [2, 4] | Classification and statistics of the grade of pesticide damage: Grade 2 (number of plants) [2, 4] | Classification and statistics of the grade of pesticide damage: Grade 3 (number of plants) [2, 4] | Resistance evaluation [2, 5] | Scores (pesticide damage) [2, 5] | further results
1 | B1 | 16 | 0 | 0 | 0 | 4 | 12 | 0 | 0 | 0 | 25 | highly | moderately | Moderately | 33 | 3 | 10 | 3 | 0 | Poorly | 67 | Classification and statistics of the grade of pesticide damage: Grade 0 (number of plants) [2, 5]: 0; Classification and statistics of the grade of pesticide damage: Grade 1 (number of plants) [2, 5]: 1; Classification and statistics of the grade of pesticide damage: Grade 2 (number of plants) [2, 5]: 14; Classification and statistics of the grade of pesticide damage: Grade 3 (number of plants) [2, 5]: 1; Resistance evaluation ([3]; mesotrione 52.5 g ai/ha): Moderately; Scores ([3]; mesotrione 52.5 g ai/ha): 31; Grade 0 (classification and statistics of the grade of pesticide damage; number of plants) ([3]; mesotrione 52.5 g ai/ha): 3; Grade 1 (classification and statistics of the grade of pesticide damage; number of plants) ([3]; mesotrione 52.5 g ai/ha): 11; Grade 2 (classification and statistics of the grade of pesticide damage; number of plants) ([3]; mesotrione 52.5 g ai/ha): 2; Grade 3 (classification and statistics of the grade of pesticide damage; number of plants) ([3]; mesotrione 52.5 g ai/ha): 0; Resistance evaluation ([3]; mesotrione 105 g ai/ha): Poorly resistant; Scores ([3]; mesotrione 105 g ai/ha): 67; Grade 0 (classification and statistics of the grade of pesticide damage; number of plants) ([3]; mesotrione 105 g ai/ha): 0; Grade 1 (classification and statistics of the grade of pesticide damage; number of plants) ([3]; mesotrione 105 g ai/ha): 1; Grade 2 (classification and statistics of the grade of pesticide damage; number of plants) ([3]; mesotrione 105 g ai/ha): 14; Grade 3 (classification and statistics of the grade of pesticide damage; number of plants) ([3]; mesotrione 105 g ai/ha): 1
2 | B2 | 2 | 9 | 5 | 0 | 0 | 4 | 7 | 5 | 40 | 69 | poorly | non-resistant (non-resistant plants (scores 68-100)) | Poorly | 42 | 2 | 8 | 6 | 0 | Non-resistant | 96 | Classification and statistics of the grade of pesticide damage: Grade 0 (number of plants) [2, 5]: 0; Classification and statistics of the grade of pesticide damage: Grade 1 (number of plants) [2, 5]: 0; Classification and statistics of the grade of pesticide damage: Grade 2 (number of plants) [2, 5]: 2; Classification and statistics of the grade of pesticide damage: Grade 3 (number of plants) [2, 5]: 14; Resistance evaluation ([3]; mesotrione 52.5 g ai/ha): Poorly resistant; Scores ([3]; mesotrione 52.5 g ai/ha): 63; Grade 0 (classification and statistics of the grade of pesticide damage; number of plants) ([3]; mesotrione 52.5 g ai/ha): 0; Grade 1 (classification and statistics of the grade of pesticide damage; number of plants) ([3]; mesotrione 52.5 g ai/ha): 3; Grade 2 (classification and statistics of the grade of pesticide damage; number of plants) ([3]; mesotrione 52.5 g ai/ha): 12; Grade 3 (classification and statistics of the grade of pesticide damage; number of plants) ([3]; mesotrione 52.5 g ai/ha): 1; Resistance evaluation ([3]; mesotrione 105 g ai/ha): Non-resistant; Scores ([3]; mesotrione 105 g ai/ha): 98; Grade 0 (classification and statistics of the grade of pesticide damage; number of plants) ([3]; mesotrione 105 g ai/ha): 0; Grade 1 (classification and statistics of the grade of pesticide damage; number of plants) ([3]; mesotrione 105 g ai/ha): 0; Grade 2 (classification and statistics of the grade of pesticide damage; number of plants) ([3]; mesotrione 105 g ai/ha): 1; Grade 3 (classification and statistics of the grade of pesticide damage; number of plants) ([3]; mesotrione 105 g ai/ha): 15
